Laboratory results from publication doi:10.1101/2021.10.27.466080, “The structure of a native orthobunyavirus ribonucleoprotein reveals a key role for viral RNA in maintaining its helical architecture” (bioRxiv, 2021).

Target: the molecule itself
Assay: cryo-EM structure; native BUNV RNPs purified from virions, TNE with 25 mM NaCl; cryo-ET sub-tomogram average (20 Å) used as reference for a single-particle average with helical symmetry at 13 Å; 'split' NP from PDB 3ZLA fitted flexibly by molecular dynamics (MDFF)

B1: Bunyamwera virus (BUNV) nucleocapsid protein (NP) (natural protein)
chain: MIELEFHDVAANTSSTFDPEVAYANFKRVHTTGLSYDHIRIFYIKGREIKTSLAKRSEWEVTLNLGGWKITVYNTNFPGNRNNPVPDDGLTLHRLSGFLARYLLEKMLKVSEPEKLIIKSKIINPLAEKNGITWNDGEEVYLSFFPGSEMFLGTFRFYPLAIGIYKVQRKEMEPKYLEKTMRQRYMGLEAATWTVSKLTEVQSALTVVSSLGWKKTNVSAAARDFLAKFGINM
notes: Nucleocapsid protein (NP) of Bunyamwera virus, as it stands in native ribonucleoproteins (RNPs) with the genomic RNA; NP stands in the RNP as a helical polymer wrapped around viral genomic RNA (S, M, L segments); about 3.7 NP per helical turn; The number of copies depends on the segment; also called BUNV NP; nucleoprotein; source: native RNPs purified from BUNV virions propagated in BHK-21 cells …
binding result: binds
